Laboratory results: patent US12173301B2, “Weed control methods and related compositions and plants” (Syngenta Crop Protection AG, priority 2019, dated 2024)

Test: FatA enzymatic kinetic parameters with oleoyl-CoA as substrate
Format: biochemical
Details: Michaelis-Menten; for Km: read-out: Km (μM) - best fit
Experimental: For the determination of FatA enzymatic kinetic parameters with oleoyl-CoA as substrate, assays are carried out essentially as described above for the testing of inhibitor compounds but with some changes to the method as follows. Oleoyl CoA is omitted from the assay master mix and added as a separate component to achieve final concentration of 40 μM, 23.5 μM. 13.8 μM, 8.1 μM, 4.8 μM, 2.8 μM and 1.7 μM (i.e. 1.7× dilution scheme). The level of enzymatic activity is determined from the slope of the progress curve (initial linear rates) using assay values measured at 0, 20, 40, 60, 90 and 120 s after addition of the enzyme. Kinetic parameters are then calculated using the Michaelis-Menten model as implemented in GraphPad Prism software.
FatA variant enzymes were prepared from 1 L E coli grows and assays carried out to determine enzyme kinetics as described in Example 1.

Molecule | kcat (s^−1) - best fit | Km
Y217L: Arabidopsis FatA acyl-ACP thioesterase variant, substitution Y217L relative to SEQ ID NO: 1 (protein, listed as Arabidopsis thaliana) MLKLSCNVTDSKLQRSLLFFSHSYRSDPVNFIRRRIVSCSQTKKTGLVPLRAVVSADQGSVVQGLATLADQLRLGSLTEDGLSYKEKFVVRSYEVGSNKTATVETIANLLQEVGCNHAQSVGFSTDGFATTTTMRKLHLIWVTARMHIEIYKYPAWGDVVEIETWCQSEGRIGTRRDWILKDSVTGEVTGRATSKWVMMNQDTRRLQKVSDDVRDELLVFCPQEPRLAFPEENNRSLKKIPKLEDPAQYSMIGLKPRRADLDMNQHVNNVTYIGWVLESIPQEIVDTHELQVITLDYRRECQQDDVVDSLTTTTSEIGGTNGSATSGTQGHNDSQFLHLLRLSGDGQEINRGTTLWRKKPSS | 1.7 s⁻¹ | 4.7 µM
N269Y: Arabidopsis FatA acyl-ACP thioesterase variant, substitution N269Y relative to SEQ ID NO: 1 (protein, listed as Arabidopsis thaliana) MLKLSCNVTDSKLQRSLLFFSHSYRSDPVNFIRRRIVSCSQTKKTGLVPLRAVVSADQGSVVQGLATLADQLRLGSLTEDGLSYKEKFVVRSYEVGSNKTATVETIANLLQEVGCNHAQSVGFSTDGFATTTTMRKLHLIWVTARMHIEIYKYPAWGDVVEIETWCQSEGRIGTRRDWILKDSVTGEVTGRATSKWVMMNQDTRRLQKVSDDVRDEYLVFCPQEPRLAFPEENNRSLKKIPKLEDPAQYSMIGLKPRRADLDMNQHVNYVTYIGWVLESIPQEIVDTHELQVITLDYRRECQQDDVVDSLTTTTSEIGGTNGSATSGTQGHNDSQFLHLLRLSGDGQEINRGTTLWRKKPSS | 6.1 s⁻¹ | 4 µM
F123N: Arabidopsis FatA acyl-ACP thioesterase variant, substitution F123N relative to SEQ ID NO: 1 (protein, listed as Arabidopsis thaliana) MLKLSCNVTDSKLQRSLLFFSHSYRSDPVNFIRRRIVSCSQTKKTGLVPLRAVVSADQGSVVQGLATLADQLRLGSLTEDGLSYKEKFVVRSYEVGSNKTATVETIANLLQEVGCNHAQSVGNSTDGFATTTTMRKLHLIWVTARMHIEIYKYPAWGDVVEIETWCQSEGRIGTRRDWILKDSVTGEVTGRATSKWVMMNQDTRRLQKVSDDVRDEYLVFCPQEPRLAFPEENNRSLKKIPKLEDPAQYSMIGLKPRRADLDMNQHVNNVTYIGWVLESIPQEIVDTHELQVITLDYRRECQQDDVVDSLTTTTSEIGGTNGSATSGTQGHNDSQFLHLLRLSGDGQEINRGTTLWRKKPSS | 0.3 s⁻¹ | 14.6 µM
V121N: Arabidopsis FatA acyl-ACP thioesterase variant, substitution V121N relative to SEQ ID NO: 1 (protein, listed as Arabidopsis thaliana) MLKLSCNVTDSKLQRSLLFFSHSYRSDPVNFIRRRIVSCSQTKKTGLVPLRAVVSADQGSVVQGLATLADQLRLGSLTEDGLSYKEKFVVRSYEVGSNKTATVETIANLLQEVGCNHAQSNGFSTDGFATTTTMRKLHLIWVTARMHIEIYKYPAWGDVVEIETWCQSEGRIGTRRDWILKDSVTGEVTGRATSKWVMMNQDTRRLQKVSDDVRDEYLVFCPQEPRLAFPEENNRSLKKIPKLEDPAQYSMIGLKPRRADLDMNQHVNNVTYIGWVLESIPQEIVDTHELQVITLDYRRECQQDDVVDSLTTTTSEIGGTNGSATSGTQGHNDSQFLHLLRLSGDGQEINRGTTLWRKKPSS | 0.8 s⁻¹ | 7.1 µM
S168C: Arabidopsis FatA acyl-ACP thioesterase variant, substitution S168C relative to SEQ ID NO: 1 (protein, listed as Arabidopsis thaliana) MLKLSCNVTDSKLQRSLLFFSHSYRSDPVNFIRRRIVSCSQTKKTGLVPLRAVVSADQGSVVQGLATLADQLRLGSLTEDGLSYKEKFVVRSYEVGSNKTATVETIANLLQEVGCNHAQSVGFSTDGFATTTTMRKLHLIWVTARMHIEIYKYPAWGDVVEIETWCQCEGRIGTRRDWILKDSVTGEVTGRATSKWVMMNQDTRRLQKVSDDVRDEYLVFCPQEPRLAFPEENNRSLKKIPKLEDPAQYSMIGLKPRRADLDMNQHVNNVTYIGWVLESIPQEIVDTHELQVITLDYRRECQQDDVVDSLTTTTSEIGGTNGSATSGTQGHNDSQFLHLLRLSGDGQEINRGTTLWRKKPSS | 1.2 s⁻¹ | 6.2 µM
L218C: Arabidopsis FatA acyl-ACP thioesterase variant, substitution L218C relative to SEQ ID NO: 1 (protein, listed as Arabidopsis thaliana) MLKLSCNVTDSKLQRSLLFFSHSYRSDPVNFIRRRIVSCSQTKKTGLVPLRAVVSADQGSVVQGLATLADQLRLGSLTEDGLSYKEKFVVRSYEVGSNKTATVETIANLLQEVGCNHAQSVGFSTDGFATTTTMRKLHLIWVTARMHIEIYKYPAWGDVVEIETWCQSEGRIGTRRDWILKDSVTGEVTGRATSKWVMMNQDTRRLQKVSDDVRDEYCVFCPQEPRLAFPEENNRSLKKIPKLEDPAQYSMIGLKPRRADLDMNQHVNNVTYIGWVLESIPQEIVDTHELQVITLDYRRECQQDDVVDSLTTTTSEIGGTNGSATSGTQGHNDSQFLHLLRLSGDGQEINRGTTLWRKKPSS | 1.1 s⁻¹ | 0.8 µM
C221F: Arabidopsis FatA acyl-ACP thioesterase variant, substitution C221F relative to SEQ ID NO: 1 (protein, listed as Arabidopsis thaliana) MLKLSCNVTDSKLQRSLLFFSHSYRSDPVNFIRRRIVSCSQTKKTGLVPLRAVVSADQGSVVQGLATLADQLRLGSLTEDGLSYKEKFVVRSYEVGSNKTATVETIANLLQEVGCNHAQSVGFSTDGFATTTTMRKLHLIWVTARMHIEIYKYPAWGDVVEIETWCQSEGRIGTRRDWILKDSVTGEVTGRATSKWVMMNQDTRRLQKVSDDVRDEYLVFFPQEPRLAFPEENNRSLKKIPKLEDPAQYSMIGLKPRRADLDMNQHVNNVTYIGWVLESIPQEIVDTHELQVITLDYRRECQQDDVVDSLTTTTSEIGGTNGSATSGTQGHNDSQFLHLLRLSGDGQEINRGTTLWRKKPSS | 1.5 s⁻¹ | 4.3 µM
G114S: Arabidopsis FatA acyl-ACP thioesterase variant, substitution G114S relative to SEQ ID NO: 1 (protein, listed as Arabidopsis thaliana) MLKLSCNVTDSKLQRSLLFFSHSYRSDPVNFIRRRIVSCSQTKKTGLVPLRAVVSADQGSVVQGLATLADQLRLGSLTEDGLSYKEKFVVRSYEVGSNKTATVETIANLLQEVSCNHAQSVGFSTDGFATTTTMRKLHLIWVTARMHIEIYKYPAWGDVVEIETWCQSEGRIGTRRDWILKDSVTGEVTGRATSKWVMMNQDTRRLQKVSDDVRDEYLVFCPQEPRLAFPEENNRSLKKIPKLEDPAQYSMIGLKPRRADLDMNQHVNNVTYIGWVLESIPQEIVDTHELQVITLDYRRECQQDDVVDSLTTTTSEIGGTNGSATSGTQGHNDSQFLHLLRLSGDGQEINRGTTLWRKKPSS | 2.3 s⁻¹ | 2.8 µM
F220H: Arabidopsis FatA acyl-ACP thioesterase variant, substitution F220H relative to SEQ ID NO: 1 (protein, listed as Arabidopsis thaliana) MLKLSCNVTDSKLQRSLLFFSHSYRSDPVNFIRRRIVSCSQTKKTGLVPLRAVVSADQGSVVQGLATLADQLRLGSLTEDGLSYKEKFVVRSYEVGSNKTATVETIANLLQEVGCNHAQSVGFSTDGFATTTTMRKLHLIWVTARMHIEIYKYPAWGDVVEIETWCQSEGRIGTRRDWILKDSVTGEVTGRATSKWVMMNQDTRRLQKVSDDVRDEYLVHCPQEPRLAFPEENNRSLKKIPKLEDPAQYSMIGLKPRRADLDMNQHVNNVTYIGWVLESIPQEIVDTHELQVITLDYRRECQQDDVVDSLTTTTSEIGGTNGSATSGTQGHNDSQFLHLLRLSGDGQEINRGTTLWRKKPSS | 2.0 s⁻¹ | 3.2 µM
F123C: Arabidopsis FatA acyl-ACP thioesterase variant, substitution F123C relative to SEQ ID NO: 1 (protein, listed as Arabidopsis thaliana) MLKLSCNVTDSKLQRSLLFFSHSYRSDPVNFIRRRIVSCSQTKKTGLVPLRAVVSADQGSVVQGLATLADQLRLGSLTEDGLSYKEKFVVRSYEVGSNKTATVETIANLLQEVGCNHAQSVGCSTDGFATTTTMRKLHLIWVTARMHIEIYKYPAWGDVVEIETWCQSEGRIGTRRDWILKDSVTGEVTGRATSKWVMMNQDTRRLQKVSDDVRDEYLVFCPQEPRLAFPEENNRSLKKIPKLEDPAQYSMIGLKPRRADLDMNQHVNNVTYIGWVLESIPQEIVDTHELQVITLDYRRECQQDDVVDSLTTTTSEIGGTNGSATSGTQGHNDSQFLHLLRLSGDGQEINRGTTLWRKKPSS | 0.3 s⁻¹ | 4.8 µM
S168R: Arabidopsis FatA acyl-ACP thioesterase variant, substitution S168R relative to SEQ ID NO: 1 (protein, listed as Arabidopsis thaliana) MLKLSCNVTDSKLQRSLLFFSHSYRSDPVNFIRRRIVSCSQTKKTGLVPLRAVVSADQGSVVQGLATLADQLRLGSLTEDGLSYKEKFVVRSYEVGSNKTATVETIANLLQEVGCNHAQSVGFSTDGFATTTTMRKLHLIWVTARMHIEIYKYPAWGDVVEIETWCQREGRIGTRRDWILKDSVTGEVTGRATSKWVMMNQDTRRLQKVSDDVRDEYLVFCPQEPRLAFPEENNRSLKKIPKLEDPAQYSMIGLKPRRADLDMNQHVNNVTYIGWVLESIPQEIVDTHELQVITLDYRRECQQDDVVDSLTTTTSEIGGTNGSATSGTQGHNDSQFLHLLRLSGDGQEINRGTTLWRKKPSS | 1.3 s⁻¹ | 3 µM
